# Laboratory results reported in patent US20250019446A1 (SHANGHAI SINOBAY BIOTECHNOLOGY, published 2025).
# Substitutions are numbered along the chain they refer to.
# T1: human recombinant AXL protein, extracellular domain (hAXL-ECD) (human, UniProt P30530 26-451)
# T1 construct: extracellular domain; Bought protein; also called antigen hAXL-ECD; hAXL-ECD protein
# T1 sequence (looked up): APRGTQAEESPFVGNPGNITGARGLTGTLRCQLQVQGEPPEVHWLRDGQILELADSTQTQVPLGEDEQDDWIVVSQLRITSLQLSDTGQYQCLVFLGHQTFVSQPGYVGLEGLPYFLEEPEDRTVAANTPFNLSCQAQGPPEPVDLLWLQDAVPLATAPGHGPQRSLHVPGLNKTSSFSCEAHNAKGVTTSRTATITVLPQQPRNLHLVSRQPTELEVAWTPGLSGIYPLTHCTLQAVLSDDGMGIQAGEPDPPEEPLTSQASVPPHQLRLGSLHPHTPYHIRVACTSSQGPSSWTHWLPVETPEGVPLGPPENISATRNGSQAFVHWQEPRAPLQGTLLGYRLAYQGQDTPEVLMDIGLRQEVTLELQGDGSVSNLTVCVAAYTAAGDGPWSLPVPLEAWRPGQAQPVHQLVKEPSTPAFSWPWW
# T2: AXL on CHO-AXL cells (human, UniProt P30530 26-894)
# T2 construct: whole, on cells; The construct in the CHO-AXL cells is not described
# T2 sequence (looked up): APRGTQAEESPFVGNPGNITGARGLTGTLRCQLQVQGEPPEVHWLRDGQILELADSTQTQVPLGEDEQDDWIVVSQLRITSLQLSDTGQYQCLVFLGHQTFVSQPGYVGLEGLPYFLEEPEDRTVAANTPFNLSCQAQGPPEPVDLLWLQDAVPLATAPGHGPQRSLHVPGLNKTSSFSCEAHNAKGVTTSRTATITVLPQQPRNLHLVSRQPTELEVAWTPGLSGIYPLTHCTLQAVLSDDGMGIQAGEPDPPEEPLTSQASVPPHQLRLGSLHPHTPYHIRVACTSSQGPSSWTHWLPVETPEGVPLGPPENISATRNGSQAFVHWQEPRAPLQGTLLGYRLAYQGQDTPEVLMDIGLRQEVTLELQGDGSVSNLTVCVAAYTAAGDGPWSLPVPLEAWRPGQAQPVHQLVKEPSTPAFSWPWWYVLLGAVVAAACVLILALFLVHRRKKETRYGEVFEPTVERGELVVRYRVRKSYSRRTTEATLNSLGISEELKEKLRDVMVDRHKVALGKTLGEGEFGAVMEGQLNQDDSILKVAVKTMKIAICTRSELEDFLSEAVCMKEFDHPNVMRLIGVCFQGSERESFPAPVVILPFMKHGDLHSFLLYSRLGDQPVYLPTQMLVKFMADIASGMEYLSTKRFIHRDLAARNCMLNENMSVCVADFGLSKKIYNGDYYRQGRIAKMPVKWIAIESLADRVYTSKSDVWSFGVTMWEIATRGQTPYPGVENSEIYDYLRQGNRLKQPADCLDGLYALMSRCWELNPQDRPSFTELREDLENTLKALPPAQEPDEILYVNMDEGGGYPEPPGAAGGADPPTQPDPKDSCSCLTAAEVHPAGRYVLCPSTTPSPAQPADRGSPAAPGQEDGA
# B1: Hu001-11 Fab (clone 11, expressed in clone supernatant) (Fab, V domains shown)
# VH: QVQLLESGGGVVQPGRSLRLSCAASGFTFSSYGMHWVRQAPGKGLEWVAVISYDGSNKYYADSVKGRFTISRDNSKNTLYLQMNSLRAEDTAVYYCAKYGSSGPYWYFDLWGQGTLVTVSA
# VL: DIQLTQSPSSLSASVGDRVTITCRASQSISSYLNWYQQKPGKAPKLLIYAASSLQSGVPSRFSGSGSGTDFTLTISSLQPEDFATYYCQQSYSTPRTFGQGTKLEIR
# notes: Fab from the phage library clone, tested as bacterial culture supernatant
# B2: Hu001-14 Fab (clone 14, expressed in clone supernatant) (Fab, V domains shown)
# VH: EVQLVQSGAEVKKPGASVKVSCKASGYTFTSYYMHWVRQAPGQGLEWMGIINPSGGSTSYAQKFQGRVTMTRDTSTSTVYMELSSLRSEDSAVYYCARDWYFDVWGAGTTVTVSA
# VL: NIQMTQSPSSVSASVGDRVTITCRASQGISSWLAWYQQKPGKAPKLLIYAASSLQSGVPSRFSGSGSGTDFTLTISSLQPEDFATYYCQQANSFPFTFGGGTKVEIK
# notes: as for B1
# B3: Hu001-7 Fab (clone 7, expressed in clone supernatant) (Fab, V domains shown)
# VH: QVQLVQSGAEVKKPGSSVKVSCKASGGTFSSYAISWVRQAPGQGLEWMGGIIPIFGTANYAQKFQGRVTITADESTSTAYMELSSLRSEDTAVYYCAKDIVSRVRGELVGGYYYFGLDVWGQGTTVTVSA
# VL: NIQLTQSPSSLSASVGDRVTITCRASQTISSYLNWYQQKPGKAPKLLIYAASRLQSGVPSRFSGSGSGTDFTLTISSLQPEDFATYYCQQSYSTPRTFGQGTKVEIK
# notes: as for B1
# B4: Hu001-5 Fab (clone 5, expressed in clone supernatant) (Fab, V domains shown)
# VH: QVQLLESGGGVVQPGRSLRLSCAASGFTFSSYGMHWVRQAPGKGLEWVAVISYDGSNKYYADSVKGRFTISRDNSKNTLYLQMNSLRAEDTAVYYCAKDQVLAPVGGGLFDYWGQGTLVTVSA
# VL: B3 VL with N1D, T28S, S31T, K45E, L46S, Y49F, R53S, Q55A, Q100P
# notes: as for B1
# B5: Hu001-5 antibody (full-length human IgG1, kappa) (antibody, V domains shown)
# VH: B4 VH
# VL: B3 VL with N1D, T28S, S31T, K45E, L46S, Y49F, R53S, Q55A, Q100P
# notes: built as human IgG1 with kappa light chain in vectors AbVec-hIgG1 WT and AbVec-hIgKappa, expressed in Expi293 cells; also called anti-AXL antibody Hu001-5
# B6: Hu001-11 antibody (full-length human IgG1, kappa) (antibody, V domains shown)
# VH: B1 VH
# VL: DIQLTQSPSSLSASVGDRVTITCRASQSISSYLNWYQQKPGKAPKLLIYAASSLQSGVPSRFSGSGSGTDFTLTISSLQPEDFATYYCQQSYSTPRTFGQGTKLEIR
# notes: built as human IgG1 with kappa light chain in vectors AbVec-hIgG1 WT and AbVec-hIgKappa, expressed in Expi293 cells; also called anti-AXL antibody Hu001-11
# Key:
# [1] = target: T1, human recombinant AXL protein, …; experiment: ELISA, Fab supernatant on coated hAXL-ECD, OD450; unit inferred, unit taken from the concentration axis
# Procedure: Clones from the third round of selection were first picked up in a 96-well deep-well plate containing 300 μL of 2-YT medium and incubated overnight at 37° C. The supernatant, which contained the expressed Fab, was taken, diluted in a gradient, and added to an ELISA plate coated with 2 μg/mL of hAXL-ECD. HRP-labeled goat anti-human Fab was used as the secondary antibody (goat anti-human-HRP, ThermnoFisher, 31482, 1:6000 dilution) for detection. A higher signal value indicated a stronger affinity.
# AXL on CHO-AXL cells [2] = target: T2, AXL on CHO-AXL cells; experiment: flow cytometry on CHO-AXL cells, pH 6.0 and pH 7.4, IgG-Fc-PE secondary antibody
# Procedure: (§1) The affinity of the candidate antibody for specific binding to hAXL-ECD was detected by flow cytometry. A total of 4 clones of Hu001-5, Hu001-7, Hu001-11, and Hu001-14 were tested under acidic (pH=6.0) and neutral (pH=7.4) conditions, respectively.
# (§2) CHO-AXL cells (constructed by Shanghai Sinobay Biotechnology Co. Ltd.) were cultured in a cell culture flask in DMEM/F-12 medium (10% FBS, 1% penicillin/streptomycin). After 48 hours of culture at 37° C. in an incubator containing 5% CO₂, the supernatant was discarded. The cells were collected by digestion with 0.25% trypsin and centrifuged at 800 g for 3 minutes. The supernatant was discarded and the cells were resuspended (10⁶/mL) in 2% FBS Wash Buffer. The pH of the buffer was adjusted and the cells were divided into pH6.0 and pH7.4 groups, and primary antibodies (Hu001-5 antibody, Hu001-7 antibody, Hu001-11 antibody, Hu001-14 antibody, and positive control antibody CCT301-38) were added to each group and incubated for 15 minutes at room temperature. The supernatant was discarded. Fluorescent-labeled secondary antibody IgG-Fc-PE (BioLegend, cat. No. 409304) was added and incubation was continued at room temperature for 15 min in the dark. Then, the detection was performed on the machine. A higher signal value can indicate a stronger affinity. […]
# AXL on CHO-AXL cells [3] = target: T2, AXL on CHO-AXL cells; experiment: flow cytometry on CHO-AXL cells, pH 6.0 against pH 7.4
# Procedure: as §1, §2
binder,measurement,setting,value
B1,EC50,[1],0.14 µg/mL
B2,EC50,[1],0.274 µg/mL
B3,EC50,[1],0.214 µg/mL
B4,EC50,[1],0.292 µg/mL
B5,fold of mean fluorescence intensity against the positive control CCT301-38,AXL on CHO-AXL cells [2],~4 fold
same,fold of mean fluorescence intensity under the acidic condition against the neutral condition,AXL on CHO-AXL cells [3],~1.5 fold
B6,fold of mean fluorescence intensity against the positive control CCT301-38,AXL on CHO-AXL cells [2],~4 fold
same,fold of mean fluorescence intensity under the acidic condition against the neutral condition,AXL on CHO-AXL cells [3],~1.5 fold
